Our source for the NLR(NS5) - NLR(NS5ΔPBM) values is publication PMC7865074.

Sequences and labels used below:
B1: Zona Occludens 3; Tight Junction Protein 3, PDZ domain 3 (N2H construct) (domain or fragment)
chain: DTRVVRFLKGKSIGLRLAGGNDVGIFVSGVQAGSPADGQGIQEGDQILQVNDVPFQNLTREEAVQFL
B2: Synaptojanin-2-binding protein, PDZ domain (N2H construct) (domain or fragment)
chain: EINLTRGPSGLGFNIVGGTDQQYVSNDSGIYVSRIKENGAAALDGRLQEGDKILSVNGQDLKNLLHQDAVDLFRNAGYAVSLRVQHRL
B3: PDZ domain-containing protein 4, PDZ domain (N2H construct) (domain or fragment)
chain: EVELYKSSHRDKLGLMVCYRTDDEEDLGIYVGEVNPNSIAAKDGRIREGDRIIQINGVDVQNREEAVAILSQEENTNISLLVARP
B4: Membrane-associated guanylate kinase, WW and PDZ domain-containing protein 2, PDZ domain 1 (N2H construct) (domain or fragment)
chain: ESVIGRNPEGQLGFELKGGAENGQFPYLGEVKPGKVAYESGSKLVSEELLLEVNETPVAGLTIRDVLAVIKHCKDPLRLKCVKQG
B5: SH3 and multiple ankyrin repeat domains protein 1, PDZ domain (N2H construct) (domain or fragment)
chain: TVLLQKKDSEGFGFVLRGAKAQTPIEEFTPTPAFPALQYLESVDEGGVAWRAGLRMGDFLIEVNGQNVVKVGHRQVVNMIRQGGNTLMVKVVMVT
B6: Zona Occludens 3; Tight Junction Protein 3, PDZ domain 1 (N2H construct) (domain or fragment)
chain: TATLSKDPRRGFGIAISGGRDRPGGSMVVSDVVPGGPAEGRLQTGDHIVMVNGVSMENATSAFAIQILKTCTKMANITVKRPR
B7: SH3 and multiple ankyrin repeat domains protein 3, PDZ domain (N2H construct) (domain or fragment)
chain: VAVLQKRDHEGFGFVLRGAKAETPIEEFTPTPAFPALQYLESVDVEGVAWRAGLRTGDFLIEVNGVNVVKVGHKQVVALIRQGGNRLVMKVVSVT
B8: PDZ domain-containing protein GIPC3, PDZ domain (N2H construct) (domain or fragment)
chain: EVEVTKTEDALGLTITDNGAGYAFIKRIKEGSIINRIEAVCVGDSIEAINDHSIVGCRHYEVAKMLRELPKSQPFTLRLVQ
B9: Whirlin, PDZ domain 3 (N2H construct) (domain or fragment)
chain: LVRVKKSAATLGIAIEGGANTRQPLPRIVTIQRGGSAHNCGQLKVGHVILEVNGLTLRGKEHREAARIIAEAFKTKDRDYIDFL
B10: MPDZ, PDZ domain 6 (N2H construct) (domain or fragment)
chain: TINIAKGNSSLGMTVSANKDGLGMIVRSIIHGGAISRDGRIAIGDCILSINEESTISVTNAQARAMLRRHSLIGPDIKITYV
B11: Rho GTPase-activating protein 21, PDZ domain (N2H construct) (domain or fragment)
chain: TVTLKRTSQGFGFTLRHFIVYPPESAIQFSYKDEENGNRGGKQRNRLEPMDTIFVKQVKEGGPAFEAGLCTGDRIIKVNGESVIGKTYSQVIALIQNSDTTLELSVMPKD
B12: T-lymphoma invasion and metastasis-inducing protein 2, PDZ domain (N2H construct) (domain or fragment)
chain: DVQLTKTGSVCDFGFAVTAQVDERQHLSRIFISDVLPDGLAYGEGLRKGNEIMTLNGEAVSDLDLKQMEALFSEKSVGLTLIARPPD
B13: MAGUK p55 subfamily member 5, PDZ domain (N2H construct) (domain or fragment)
chain: IVRIEKARDIPLGATVRNEMDSVIISRIVKGGAAEKSGLLHEGDEVLEINGIEIRGKDVNEVFDLLSDMHGTLTFVLIPSQ
B14: Protein piccolo, PDZ domain (N2H construct) (domain or fragment)
chain: RIKITRDSKDHTVSGNGLGIRIVGGKEIPGHSGEIGAYIAKILPGGSAEQTGKLMEGMQVLEWNGIPLTSKTYEEVQSIISQQSGEAEICVRLDL
B15: Regulating synaptic membrane exocytosis protein 2, PDZ domain (N2H construct) (domain or fragment)
chain: DGSVPRDSGAMLGLKVVGGKMTESGRLCAFITKVKKGSLADTVGHLRPGDEVLEWNGRLLQGATFEEVYNIILESKPEPQVELVVSR
B16: PDZ and LIM domain protein 1, PDZ domain (N2H construct) (domain or fragment)
chain: TQQIDLQGPGPWGFRLVGGKDFEQPLAISRVTPGSKAALANLCIGDVITAIDGENTSNMTHLEAQNRIKGCTDNLTLTVARSE
B17: Beta-1-syntrophin, PDZ domain (N2H construct) (domain or fragment)
chain: GVKVLKQELGGLGISIKGGKENKMPILISKIFKGLAADQTQALYVGDAILSVNGADLRDATHDEAVQALKRAGKEVLLEVKYMR
B18: Rho guanine nucleotide exchange factor 12, PDZ domain (N2H construct) (domain or fragment)
chain: CVIIQKDDNGFGLTVSGDNPVFVQSVKEDGAAMRAGVQTGDRIIKVNGTLVTHSNHLEVVKLIKSGSYVALTVQGRPPGS
B19: Ligand of Numb protein X 2, PDZ domain 2 (N2H construct) (domain or fragment)
chain: QVALHKRDSGEQLGIKLVRRTDEPGVFILDLLEGGLAAQDGRLSSNDRVLAINGHDLKYGTPELAAQIIQASGERVNLTIARPG
B20: 26S proteasome non-ATPase regulatory subunit 9, PDZ domain (N2H construct) (domain or fragment)
chain: QARDMAEAHKEAMSRKLGQSESQGPPRAFAKVNSISPGSPASIAGLQVDDEIVEFGSVNTQNFQSLHNIGSVVQHSEGKPLNVTVIRR
B21: Partitioning defective 3 homolog B, PDZ domain 1 (N2H construct) (domain or fragment)
chain: TRTVEISGEGGPLGIHVVPFFSSLSGRILGLFIRGIEDNSRSKREGLFHENECIVKINNVDLVDKTFAQAQDVFRQAMKSPSVLLHVLP
B22: SH3 and multiple ankyrin repeat domains protein 2, PDZ domain (N2H construct) (domain or fragment)
chain: TVVLQKKDNEGFGFVLRGAKADTPIEEFTPTPAFPALQYLESVDEGGVAWQAGLRTGDFLIEVNNENVVKVGHRQVVNMIRQGGNHLVLKVVTVT
B23: PDZ domain-containing protein 2, PDZ domain 2 (N2H construct) (domain or fragment)
chain: KMELLKESDGLGIQVSGGRGSKRSPHAIVVTQVKEGGAAHRDGRLSLGDELLVINGHLLVGLSHEEAVAILRSATGMVQLVVASKE

For this test, the target named is full-length (FL) NS5 protein (wt PBM) of West Nile virus (West Nile virus). As to the kind of experiment: split reporter (BiFC, NanoBiT); N2H split-NanoLuc in HEK-293T cells; full-length NS5 with 257 single PDZ domains; read-out NLR with NS5 minus NLR with NS5ΔPBM, three experiments; hits > 0.25.
With B1, the NLR(NS5) - NLR(NS5ΔPBM) stood at 0.72.

Turning to B2, the NLR(NS5) - NLR(NS5ΔPBM) is less than 0.25.

On to B3, for which the NLR(NS5) - NLR(NS5ΔPBM) is 0.85.

For B4, the NLR(NS5) - NLR(NS5ΔPBM) came to 0.26.

Consider B5, for which the NLR(NS5) - NLR(NS5ΔPBM) is 1.66.

Regarding B6, the NLR(NS5) - NLR(NS5ΔPBM) was 3.05.

For B7, the NLR(NS5) - NLR(NS5ΔPBM) was less than 0.25.

For the molecule B8, the NLR(NS5) - NLR(NS5ΔPBM) turned out to be 2.15.

On to B9, for which the NLR(NS5) - NLR(NS5ΔPBM) amounted to 0.38.

As to B10, the NLR(NS5) - NLR(NS5ΔPBM) came out at 0.38.

As for B11, the NLR(NS5) - NLR(NS5ΔPBM) is less than 0.25.

As to B12, the NLR(NS5) - NLR(NS5ΔPBM) was 0.65.

Take B13: the NLR(NS5) - NLR(NS5ΔPBM) worked out at 0.26.

With B14, the NLR(NS5) - NLR(NS5ΔPBM) stood at 0.57.

For the molecule B15, the NLR(NS5) - NLR(NS5ΔPBM) amounted to 11.2.

On to B16, for which the NLR(NS5) - NLR(NS5ΔPBM) came out at 27.2.

With B17, the NLR(NS5) - NLR(NS5ΔPBM) is less than 0.25.

For the molecule B18, the NLR(NS5) - NLR(NS5ΔPBM) is less than 0.25.

As for B19, the NLR(NS5) - NLR(NS5ΔPBM) turned out to be 0.25.

Consider B20, for which the NLR(NS5) - NLR(NS5ΔPBM) is 1.21.

For B21, the NLR(NS5) - NLR(NS5ΔPBM) came to 0.42.

As to B22, the NLR(NS5) - NLR(NS5ΔPBM) was less than 0.25.

As to B23, the NLR(NS5) - NLR(NS5ΔPBM) is 0.49.
